Patent US11230591 (Merck Sharp & Dohme, dated 2022)

Legend:
CMV virions = target: T1, CMV virions; assay: virion ELISA
T1 construct: also called whole virions

[1] = target: gB on infectious CMV (neutralization assays) (human cytomegalovirus); assay: cell-based or functional assay

B1: 3-25 (antibody, V domains shown)
VH: QVQLVESGGGVVQPGRSLRLSCAASGFTFSNHGLHWVRQPPGKGLEWVAVVSKDGTNEHYADSVRGRFTISRDNSKNTLYLLMKSLRLEDTAVYYCAREGYCGDDRCYSGQPDYWGQGILVTVSS
VL: EIVLTQFPATLSLSPGERATLSCRASQSVGRYLAWYQQKPGQAPRLLIYDSSNRATGVPARFSGSGSGTDFTLSISSLEPEDFAVYFCQQRSHWPPLTFGGGTKVEIK
notes: also called antibody 3-25; clone 3-25
EC50 (CMV virions): 0.04 µg/mL
EC50 Neutralizing [1]: 0.3 µg/mL
